Entries after “also recorded” stand apart in the source; their conditions may differ.
Experiments:
p75^NTR [1] = biological target: T1, p75^NTR (Mus musculus, UniProt Q9Z0W1); test: Western blotting of TLR signalling proteins in CpG treated murine PDCs; format: cell-based
T1 construct: endogenous in cells; host or cells: murine plasmacytoid dendritic cells differentiated in vitro from bone marrow with Flt3-L (p75NTR+/+ wildtype; p75NTR-/- as control)
T1 sequence (Q9Z0W1 32-427): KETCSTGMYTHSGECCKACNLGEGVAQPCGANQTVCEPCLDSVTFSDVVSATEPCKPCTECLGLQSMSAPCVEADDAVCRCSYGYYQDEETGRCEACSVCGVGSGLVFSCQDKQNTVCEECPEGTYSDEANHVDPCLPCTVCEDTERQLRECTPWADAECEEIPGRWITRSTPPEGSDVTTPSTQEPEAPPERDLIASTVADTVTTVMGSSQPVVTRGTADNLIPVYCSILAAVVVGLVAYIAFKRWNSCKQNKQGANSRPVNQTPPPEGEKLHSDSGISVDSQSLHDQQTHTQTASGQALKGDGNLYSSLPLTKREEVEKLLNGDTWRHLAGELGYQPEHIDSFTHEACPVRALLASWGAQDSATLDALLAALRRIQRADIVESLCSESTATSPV
Source text: To investigate the mechanisms underlying these effects, we analysed PDCs treated with CPG-ODNs Class A (FIG. 3F) or Class B (FIG. 3G) using western blotting.

p75^NTR [2] = biological target: T1, p75^NTR; conditions: in vivo
p75^NTR [3] = biological target: T1, p75^NTR; test: OVA-mediated allergic asthma induced by intratracheal OVA-loaded PDCs; format: in vivo
Source text: Heterozygous p75^NTR knockout mice (p75^NTR+/−) were purchased from The Jackson Laboratory (Bar Harbor, Me., USA) and bred under pathogen-free conditions in the animal facility of the TU Dresden. Male and female p75^NTR+/+ and p75^NTR−/− mice were used at 10-12 weeks of age for experiments.
Murine PDC were generated in vitro as follows: Bone marrow cells were isolated by flushing femur and tibia of mice. Erythrocytes were lysed using ACK buffer. Remaining cells were washed and cultured at a density of 2×10^6 cells per ml in RPMI 1640 medium supplemented with 10% FCS, 1 mM sodium pyruvat, 2 mM L-glutamine, 100 IU per ml penicillin, 100 μg/ml streptomycin, 10 mM HEPES buffer and 0.1 mM β-mercaptoethanol. To differentiate bone marrow cells into PDCs, 100 ng/ml Flt3-L (fms-like tyrosine kinase 3-ligand) was added to the cells. After 8 days of culture PDCs were enriched by removing the CD11b^+ fraction using CD11b Microbeads (Miltenyi Biotec) according to manufacturer instructions. Dead cells were excluded using Dead cell removal Kit (Miltenyi Biotec). Purity of PDCs was evaluated by flow cytometry (CD11b^−CD11c^+B220^+Siglec-H^+).
To induce allergic asthma, in vitro generated PDCs were incubated with 100 μg/ml ovalbumin (OVA; grade V; Sigma-Aldrich) for 24 h. To sensitize mice, 1×10^6 OVA-loaded PDCs were injected intratracheally to the lungs of anesthetized mice using 24GA i.v. cannula (BD Neoflon™). Control animals received either the same amount of PDCs without OVA or PBS. After 10 days, mice were exposed to 1% w/v OVA-aerosol for 30 min on 3 consecutive days in order to induce allergic reaction. 24 h after last provocation, animals were sacrificed and the immune reaction was examined based on the bronchoalveolar lavage fluid (BALF) cell composition (eosinophils, lymphocytes, macrophages) and pro-inflammatory cytokines spectrum, lung histology and blood serum OVA-specific IgE levels.
BALF cells were quantified by flow cytometry. Cells were preincubated with FcR blocking reagent to avoid a non-specific binding. The following antibodies were used for staining: CD3-V500, CD4-V450, CD8-PE Cy7, CD11c-APC Cy7, B220-PE, F4/80-PerCP, SiglecF-AF647, Ly6G-FITC. Among lymphocytes (FSC^low/SSC^low) the CD4^+ T helper cells were designated as CD3^posCD4^pos; the CD8^+ T helper cells as CD3^posCD8^pos; B-cells as CD3^negB220^pos; among granulocytes (FSC^low/SSC^high, Ly6G^pos) eosinophils were assigned as SiglecF^posCD11c^neg and neutrophils as SiglecF^neg. Macrophages were assigned as FSC^high highly autofluorescent CD11c^posF4/80^pos cells. Additionally, the cytospins of collected cells were prepared and stained according to Pappenheim's method.
BALF supernatant was used for quantification of IL-4, IL-5 and IL-13 by ELISA (eBioscience) according to manufacturer instruction.
Lungs were perfused with PBS and fixed in 4% v/v formaldehyde. 4 μm sections of paraffin-embedded lungs were stained with PAS staining for quantification of inflammation and GobleT-cell hyperplasia.
NGF is present in the lung and increased during inflammatory processes such as allergic asthma. To investigate the impact of NGF on PDCs during allergen-mediated immune response, p75^NTR+/+ PDCs were incubated with ovalbumin (OVA) in the presence or absence of NGF (100 ng/ml) prior intratracheal instillation to p75^NTR+/+ mice.
To substantiate the p75^NTR dependent impact of NGF on PDCs during allergen-mediated immune response, p75^NTR+/+ PDCs were incubated with ovalbumin (OVA) and NGF (100 ng/ml) in the presence or absence of the p75^NTR-specific inhibitory peptide PEP5 prior intratracheal instillation to p75^NTR+/+ mice.

p75^NTR [4] = biological target: T2, p75^NTR (Homo sapiens, UniProt P08138); test: Th2 prone GvHD xenotransplantation model: NSG mice given human autologous T-cells and PDCs
T2 sequence (P08138 29-427): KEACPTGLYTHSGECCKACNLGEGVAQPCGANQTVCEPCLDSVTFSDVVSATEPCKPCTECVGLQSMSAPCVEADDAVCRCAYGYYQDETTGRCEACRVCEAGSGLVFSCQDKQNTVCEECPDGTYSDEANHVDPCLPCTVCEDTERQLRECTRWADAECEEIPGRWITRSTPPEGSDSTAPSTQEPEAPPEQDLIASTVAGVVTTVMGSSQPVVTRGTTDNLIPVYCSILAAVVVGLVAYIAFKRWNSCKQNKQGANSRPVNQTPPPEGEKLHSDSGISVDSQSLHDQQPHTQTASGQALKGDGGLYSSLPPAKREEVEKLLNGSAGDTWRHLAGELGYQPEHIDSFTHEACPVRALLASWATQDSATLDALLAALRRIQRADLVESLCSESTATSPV
Description: Recipient mice from NSG mouse strain were pre-condition by irradiation with 3 Gy 24 hours before transplantation of human cells
For scoring of GvHD incidence and survival transplanted mice were monitored daily for weight, behaviour, skin, activity, fur and other parameters.
Human, autologous T-cells and PDCs were stimulated either with CpG B or not. Overnight co-cultured was done in the absence or presence of NGF. One day later human cells were transplanted into irradiated NSG mice by i.v. injection.

[5] = CpG A stimulated p75^NTR+/+ PDCs, NGF added
[6] = p75^NTR+/+ PDCs co-incubated with CpG B and NGF
[7] = p75^NTR+/+ PDCs incubated with OVA in presence of NGF (100 ng/ml) vs OVA alone, then intratracheal instillation to p75^NTR+/+ mice

NGF: Nerve growth factor, best characterized neurotrophin; natural p75^NTR agonist (R&D Systems)
activation (phosphorylation) of IRF-3, IRF7, IKK and c-Jun (p75^NTR [1]; [5]): reduced activation | expression of MyD88 and TRAF6 (p75^NTR [1]; [5]): reduced expression | CpG A-induced phosphorylation of IRF3 and IRF7 (p75^NTR [1]; p75^NTR+/+ PDCs): attenuated | activation (phosphorylation) of IRF3, IRF7, IKK and c-Jun (p75^NTR [1]; [6]): increased | expression of MyD88 and TRAF3 (p75^NTR [1]; [6]): increased expression | levels of CpG-induced phosphorylation of IRF3 and IRF7 in p75^NTR−/− pDCs (p75^NTR [1]; p75^NTR−/− pDCs): did not alter | type I diabetes incidence without CpG B (p75^NTR [2]): no NGF dependent effect | time of onset of PDC induced type I diabetes (diabetes free time) (p75^NTR [2]; iv): occurred at a significant later stage; also recorded: significantly prolonged | number of macrophages in BALF (p75^NTR [3]; OVA up-take by PDCs in presence of NGF vs OVA alone): decreased | production of Th2 cytokines (IL-4, IL-5 and IL-13) in the lung (p75^NTR [3]; OVA-loaded PDCs treated with NGF vs pulsed with OVA in absence of NGF): increased production | inflammatory phenotype in the lung (histology: perivascular inflammation, mucus production) (p75^NTR [3]; PDCs treated with NGF during OVA-uptake): potentiated the inflammatory phenotype in the lung | numbers of eosinophils in BALF (p75^NTR [3]; [7]): significantly augmented | numbers of lymphocytes in BALF (p75^NTR [3]; [7]): significantly augmented | induction of airway inflammation by p75^NTR−/− PDCs (p75^NTR [3]; p75^NTR−/− PDCs loaded with OVA in presence or absence of NGF, data not shown): not able to induce airway inflammation | mortality (survival) (p75^NTR [4]; CpG B stimulated PDCs co-cultured in presence of NGF before transplantation): significantly increased mortality | severity of GvHD (cumulative GvHD incidence) (p75^NTR [4]; CpG B stimulated PDCs co-cultured with T-cells in presence of NGF before i.v. transplantation, 12 weeks): increased severity of GvHD | cumulative GvHD incidence or survival without CpG B (p75^NTR [4]; PDCs cultured without TLR stimulating CpG B, data not shown): no NGF dependent effect; also recorded: abolished the accelerating NGF effect

Reference: patent US20190381169A1, “PHARMACEUTICAL COMBINATIONS FOR IMMUNOTHERAPY” (Technische Universitat Dresden, priority 2014, published 2019)
